# Laboratory results from patent publication US20200199204A1 (UNITED STATES OF AMERICA AS REPRESENTED BY THE SECRETARY …, published 2020).
# Experiments:
# Test in all cases: cell-based or functional assay
# [1] = molecular target: HIV-1 Env of Q23.17 (HIV-1)
# [2] = molecular target: HIV-1 Env of RHPA.7 (HIV-1)
# [3] = molecular target: HIV-1 Env of CM244.ec1 (HIV-1)
# [4] = molecular target: HIV-1 Env of 3016.V5.c36 (HIV-1)
# [5] = molecular target: HIV-1 Env of DU156.12 (HIV-1)
# [6] = molecular target: HIV-1 Env of SC422.8 (HIV-1)
# [7] = molecular target: HIV-1 Env of TRJO.58 (HIV-1)
# [8] = molecular target: HIV-1 Env of REJO.67 (HIV-1)
# [9] = molecular target: HIV-1 Env of 0260.v5.c36 (HIV-1)
# [10] = molecular target: HIV-1 Env of AC10.29 (HIV-1)
# [11] = molecular target: HIV-1 Env of TRO.11 (HIV-1)
# [12] = molecular target: HIV-1 Env of 96ZM651.02 (HIV-1)
# [13] = molecular target: HIV-1 Env of CAP244.D3 (HIV-1)
# [14] = molecular target: HIV-1 Env of ZM135.10a (HIV-1)
# [15] = molecular target: HIV-1 Env of ZM109.4 (HIV-1)
# [16] = molecular target: HIV-1 Env of ZM53.12 (HIV-1)
# [17] = molecular target: HIV-1 Env of UG037.8 (HIV-1)
# [18] = molecular target: HIV-1 Env of WITO.33 (HIV-1)
# [19] = molecular target: HIV-1 Env of KER2018.11 (HIV-1)
# [20] = molecular target: HIV-1 Env of 6405.v4.c34 (HIV-1)
# [21] = molecular target: HIV-1 Env of CAP45.G3 (HIV-1)
# [22] = molecular target: HIV-1 Env of Q769.d22 (HIV-1)
# [23] = molecular target: HIV-1 Env of Q259.d2.17 (HIV-1)
# [24] = molecular target: HIV-1 Env of 6535.3 (HIV-1)
# [25] = molecular target: HIV-1 Env of 191821.E6.1 (HIV-1)
# [26] = molecular target: HIV-1 Env of ZM197.7 (HIV-1)
# [27] = molecular target: HIV-1 Env of KER2008.12 (HIV-1)
# [28] = molecular target: HIV-1 Env of MB539.2B7 (HIV-1)
# [29] = molecular target: HIV-1 Env of PVO.04 (HIV-1)
# [30] = molecular target: HIV-1 Env of CAP210.E8 (HIV-1)
# [31] = molecular target: HIV-1 Env of Q461.e2 (HIV-1)
# [32] = molecular target: HIV-1 Env of ZM233.6 (HIV-1)
# [33] = molecular target: HIV-1 Env of CAP256.PI (HIV-1)
# [34] = molecular target: HIV-1 Env of CAAN.A2 (HIV-1)
# [35] = molecular target: HIV-1 Env of RW020.2 (HIV-1)
# [36] = molecular target: HIV-1 Env of C1080.c3 (HIV-1)
# [37] = molecular target: HIV-1 Env of MB201 (HIV-1)
# [38] = molecular target: HIV-1 Env of CAP256.SU (HIV-1)
# [39] = molecular target: HIV-1 Env of Q842.d12 (HIV-1)
# [40] = molecular target: HIV-1 Env of ZM214.15 (HIV-1)
# [41] = molecular target: HIV-1 Env of DU422.01 (HIV-1)
# [42] = molecular target: HIV-1 Env of THRO.18 (HIV-1)
# [43] = molecular target: HIV-1 Env of QH0692.42 (HIV-1)
# [44] = molecular target: HIV-1 Env of Q168.a2 (HIV-1)
# [45] = molecular target: HIV-1 Env of ZM249.1 (HIV-1)
# [46] = molecular target: HIV-1 Env of DU172.17 (HIV-1)
# [47] = molecular target: HIV-1 Env of BG505.w6m (HIV-1)
binder,measurement,setting,value
"CAP256-VRC26.11 (antibody, V domains shown) VH: EVQLVESGGGVVPPGKSLTLSCVASRFTFSAFGMHWVRQAPGKGLEWVASISFAGIKKYYADSVKGRFSISRDNSNTLFLQMNGLRGEDTGLYHCVKDMRELECEEWASDYYDFGKPQPCLDRRGVSGISAWWGPGTMVTVSS VL: QSVLTQPPSVSAAPGQNVTISCSGPPSHIEKNDVSWYQRLPGMAPKMVIYESKRRPLGIPVRFSASRSGSSATLVITGLQTADEADYYCGTWDGRMNFGTGTTVSVLG",neutralization IC50,[1],> 50 µg/mL
same,neutralization IC50,[2],> 50 µg/mL
same,neutralization IC50,[3],26.7 µg/mL
same,neutralization IC50,[4],0.3 µg/mL
same,neutralization IC50,[5],> 50 µg/mL
same,neutralization IC50,[6],> 50 µg/mL
same,neutralization IC50,[7],> 50 µg/mL
same,neutralization IC50,[8],> 50 µg/mL
same,neutralization IC50,[9],> 50 µg/mL
same,neutralization IC50,[10],> 50 µg/mL
same,neutralization IC50,[11],> 50 µg/mL
same,neutralization IC50,[12],> 50 µg/mL
same,neutralization IC50,[13],> 50 µg/mL
same,neutralization IC50,[14],> 50 µg/mL
same,neutralization IC50,[15],> 50 µg/mL
same,neutralization IC50,[16],0.081 µg/mL
same,neutralization IC50,[17],> 50 µg/mL
same,neutralization IC50,[18],> 50 µg/mL
same,neutralization IC50,[19],1.76 µg/mL
same,neutralization IC50,[20],> 50 µg/mL
same,neutralization IC50,[21],> 50 µg/mL
same,neutralization IC50,[22],> 50 µg/mL
same,neutralization IC50,[23],> 50 µg/mL
same,neutralization IC50,[24],> 50 µg/mL
same,neutralization IC50,[25],> 50 µg/mL
same,neutralization IC50,[26],0.055 µg/mL
same,neutralization IC50,[27],> 50 µg/mL
same,neutralization IC50,[28],> 50 µg/mL
same,neutralization IC50,[29],10.8 µg/mL
same,neutralization IC50,[30],0.073 µg/mL
same,neutralization IC50,[31],> 50 µg/mL
same,neutralization IC50,[32],0.322 µg/mL
same,neutralization IC50,[33],> 50 µg/mL
same,neutralization IC50,[34],> 50 µg/mL
same,neutralization IC50,[35],> 50 µg/mL
same,neutralization IC50,[36],0.018 µg/mL
same,neutralization IC50,[37],> 50 µg/mL
same,neutralization IC50,[38],0.055 µg/mL
same,neutralization IC50,[39],> 50 µg/mL
same,neutralization IC50,[40],> 50 µg/mL
same,neutralization IC50,[41],11.5 µg/mL
same,neutralization IC50,[42],> 50 µg/mL
same,neutralization IC50,[43],> 50 µg/mL
same,neutralization IC50,[44],> 50 µg/mL
same,neutralization IC50,[45],34.5 µg/mL
same,neutralization IC50,[46],> 50 µg/mL
same,neutralization IC50,[47],4.2 µg/mL
